Patent publication US20110212097A1

Tests used:
BSA control in PBS [1] = target: BSA control in PBS (UniProt P02769); assay: ELISA mean; BSA-PBS
[2] = target: denatured or misfolded SOD1 (SOD1 in denaturation buffer with 6M GdnHCl) (Homo sapiens (Human)) (UniProt P00441); assay: ELISA mean; SOD-Gnd
[3] = target: natively folded SOD1 (SOD1 in PBS) (Homo sapiens (Human)) (UniProt P00441); assay: ELISA mean; SOD-PBS
BSA control in PBS [4] = target: BSA control in PBS (UniProt P02769); assay: ELISA rep1; BSA-PBS
[5] = target: denatured or misfolded SOD1 (SOD1 in denaturation buffer with 6M GdnHCl) (Homo sapiens (Human)) (UniProt P00441); assay: ELISA rep1; SOD-Gnd
[6] = target: natively folded SOD1 (SOD1 in PBS) (Homo sapiens (Human)) (UniProt P00441); assay: ELISA rep1; SOD-PBS
BSA control in PBS [7] = target: BSA control in PBS (UniProt P02769); assay: ELISA rep2; BSA-PBS
[8] = target: denatured or misfolded SOD1 (SOD1 in denaturation buffer with 6M GdnHCl) (Homo sapiens (Human)) (UniProt P00441); assay: ELISA rep2; SOD-Gnd
[9] = target: natively folded SOD1 (SOD1 in PBS) (Homo sapiens (Human)) (UniProt P00441); assay: ELISA rep2; SOD-PBS
BSA control in PBS [10] = target: BSA control in PBS (UniProt P02769); assay: ELISA rep3; BSA-PBS
[11] = target: denatured or misfolded SOD1 (SOD1 in denaturation buffer with 6M GdnHCl) (Homo sapiens (Human)) (UniProt P00441); assay: ELISA rep3; SOD-Gnd
[12] = target: natively folded SOD1 (SOD1 in PBS) (Homo sapiens (Human)) (UniProt P00441); assay: ELISA rep3; SOD-PBS
[13] = target: SOD1 oxidized with a mixture of ascorbate and copperchloride (Homo sapiens (Human)) (UniProt P00441); assay: ELISA mean; 0 hr CuCl
[14] = target: SOD1 oxidized with a mixture of ascorbate and copperchloride (Homo sapiens (Human)) (UniProt P00441); assay: ELISA mean; 1 hr CuCl
[15] = target: SOD1 oxidized with H2O2 (Homo sapiens (Human)) (UniProt P00441); assay: ELISA mean; 1 mM H2O2
[16] = target: SOD1 oxidized with a mixture of ascorbate and copperchloride (Homo sapiens (Human)) (UniProt P00441); assay: ELISA mean; 3 hr CuCl
[17] = target: SOD1 oxidized with a mixture of ascorbate and copperchloride (Homo sapiens (Human)) (UniProt P00441); assay: ELISA mean; 6 hr CuCl
[18] = target: SOD1 oxidized with a mixture of ascorbate and copperchloride (Homo sapiens (Human)) (UniProt P00441); assay: ELISA rep1; 0 hr CuCl
[19] = target: SOD1 oxidized with a mixture of ascorbate and copperchloride (Homo sapiens (Human)) (UniProt P00441); assay: ELISA rep1; 1 hr CuCl
[20] = target: SOD1 oxidized with H2O2 (Homo sapiens (Human)) (UniProt P00441); assay: ELISA rep1; 1 mM H2O2
[21] = target: SOD1 oxidized with a mixture of ascorbate and copperchloride (Homo sapiens (Human)) (UniProt P00441); assay: ELISA rep1; 3 hr CuCl
[22] = target: SOD1 oxidized with a mixture of ascorbate and copperchloride (Homo sapiens (Human)) (UniProt P00441); assay: ELISA rep1; 6 hr CuCl
[23] = target: SOD1 oxidized with a mixture of ascorbate and copperchloride (Homo sapiens (Human)) (UniProt P00441); assay: ELISA rep2; 0 hr CuCl
[24] = target: SOD1 oxidized with a mixture of ascorbate and copperchloride (Homo sapiens (Human)) (UniProt P00441); assay: ELISA rep2; 1 hr CuCl
[25] = target: SOD1 oxidized with H2O2 (Homo sapiens (Human)) (UniProt P00441); assay: ELISA rep2; 1 mM H2O2
[26] = target: SOD1 oxidized with a mixture of ascorbate and copperchloride (Homo sapiens (Human)) (UniProt P00441); assay: ELISA rep2; 3 hr CuCl
[27] = target: SOD1 oxidized with a mixture of ascorbate and copperchloride (Homo sapiens (Human)) (UniProt P00441); assay: ELISA rep2; 6 hr CuCl
[28] = target: SOD1 oxidized with a mixture of ascorbate and copperchloride (Homo sapiens (Human)) (UniProt P00441); assay: ELISA rep3; 0 hr CuCl
[29] = target: SOD1 oxidized with a mixture of ascorbate and copperchloride (Homo sapiens (Human)) (UniProt P00441); assay: ELISA rep3; 1 hr CuCl
[30] = target: SOD1 oxidized with H2O2 (Homo sapiens (Human)) (UniProt P00441); assay: ELISA rep3; 1 mM H2O2
[31] = target: SOD1 oxidized with a mixture of ascorbate and copperchloride (Homo sapiens (Human)) (UniProt P00441); assay: ELISA rep3; 3 hr CuCl
[32] = target: SOD1 oxidized with a mixture of ascorbate and copperchloride (Homo sapiens (Human)) (UniProt P00441); assay: ELISA rep3; 6 hr CuCl
[33] = target: SOD1 oxidized with H2O2 (Homo sapiens (Human)) (UniProt P00441); assay: ELISA mean; 10 mM H2O2
[34] = target: SOD1 oxidized with H2O2 (Homo sapiens (Human)) (UniProt P00441); assay: ELISA rep1; 10 mM H2O2
[35] = target: SOD1 oxidized with H2O2 (Homo sapiens (Human)) (UniProt P00441); assay: ELISA rep2; 10 mM H2O2
[36] = target: SOD1 oxidized with H2O2 (Homo sapiens (Human)) (UniProt P00441); assay: ELISA rep3; 10 mM H2O2
[37] = target: SOD1 oxidized with H2O2 (Homo sapiens (Human)) (UniProt P00441); assay: ELISA mean; 100 uM H2O2
[38] = target: SOD1 oxidized with H2O2 (Homo sapiens (Human)) (UniProt P00441); assay: ELISA rep1; 100 uM H2O2
[39] = target: SOD1 oxidized with H2O2 (Homo sapiens (Human)) (UniProt P00441); assay: ELISA rep2; 100 uM H2O2
[40] = target: SOD1 oxidized with H2O2 (Homo sapiens (Human)) (UniProt P00441); assay: ELISA rep3; 100 uM H2O2
BSA control in GdnHCl [41] = target: BSA control in GdnHCl (UniProt P02769); assay: ELISA mean
BSA control in PBS [42] = target: BSA control in PBS (UniProt P02769); assay: ELISA mean
[43] = target: denatured or misfolded SOD1 (SOD1 in denaturation buffer with 6M GdnHCl) (Homo sapiens (Human)) (UniProt P00441); assay: ELISA mean
[44] = target: natively folded SOD1 (SOD1 in PBS) (Homo sapiens (Human)) (UniProt P00441); assay: ELISA mean
BSA control in GdnHCl [45] = target: BSA control in GdnHCl (UniProt P02769); assay: ELISA rep1
BSA control in PBS [46] = target: BSA control in PBS (UniProt P02769); assay: ELISA rep1
[47] = target: denatured or misfolded SOD1 (SOD1 in denaturation buffer with 6M GdnHCl) (Homo sapiens (Human)) (UniProt P00441); assay: ELISA rep1
[48] = target: natively folded SOD1 (SOD1 in PBS) (Homo sapiens (Human)) (UniProt P00441); assay: ELISA rep1
BSA control in GdnHCl [49] = target: BSA control in GdnHCl (UniProt P02769); assay: ELISA rep2
BSA control in PBS [50] = target: BSA control in PBS (UniProt P02769); assay: ELISA rep2
[51] = target: denatured or misfolded SOD1 (SOD1 in denaturation buffer with 6M GdnHCl) (Homo sapiens (Human)) (UniProt P00441); assay: ELISA rep2
[52] = target: natively folded SOD1 (SOD1 in PBS) (Homo sapiens (Human)) (UniProt P00441); assay: ELISA rep2
[53] = target: DSE-2-BSA antigen (human); assay: indirect ELISA Exp #1
[54] = target: DSE-2-BSA antigen (human); assay: indirect ELISA Exp #2
[55] = target: denatured or misfolded SOD1 (SOD1 in denaturation buffer with 6M GdnHCl) (Homo sapiens (Human)) (UniProt P00441); assay: ELISA, SOD1 minus BSA
[56] = target: natively folded SOD1 (SOD1 in PBS) (Homo sapiens (Human)) (UniProt P00441); assay: ELISA, SOD1 minus BSA
[57] = target: human transferrin (human) (UniProt P02787); assay: indirect ELISA, control antigen
[58] = target: denatured or misfolded SOD1 (SOD1 in denaturation buffer with 6M GdnHCl) (Homo sapiens (Human)) (UniProt P00441); assay: ELISA, unfolded vs natively folded SOD1

Chain of UniProt P02787 (P02787 20-698 limits assumed): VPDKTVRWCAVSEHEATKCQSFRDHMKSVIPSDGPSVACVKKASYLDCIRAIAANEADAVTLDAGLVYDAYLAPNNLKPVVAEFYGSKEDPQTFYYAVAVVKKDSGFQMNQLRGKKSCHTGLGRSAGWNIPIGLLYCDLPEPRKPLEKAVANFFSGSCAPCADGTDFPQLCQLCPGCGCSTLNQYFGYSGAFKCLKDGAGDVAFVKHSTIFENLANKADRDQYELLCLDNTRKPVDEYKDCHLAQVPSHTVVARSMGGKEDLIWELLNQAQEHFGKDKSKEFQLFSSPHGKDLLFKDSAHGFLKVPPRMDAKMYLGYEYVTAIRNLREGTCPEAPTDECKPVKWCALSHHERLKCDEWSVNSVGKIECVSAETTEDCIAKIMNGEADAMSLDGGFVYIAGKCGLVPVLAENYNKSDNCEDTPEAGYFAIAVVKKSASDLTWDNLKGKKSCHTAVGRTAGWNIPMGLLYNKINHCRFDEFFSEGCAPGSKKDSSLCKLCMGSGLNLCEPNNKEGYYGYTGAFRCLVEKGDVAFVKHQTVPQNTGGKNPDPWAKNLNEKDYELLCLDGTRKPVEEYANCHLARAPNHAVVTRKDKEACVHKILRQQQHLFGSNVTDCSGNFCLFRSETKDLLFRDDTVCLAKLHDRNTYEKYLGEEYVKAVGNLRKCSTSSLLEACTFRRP

## anti-DSE2 IgG mAb clone 10E11C11 (antibody)
BSA control in PBS [1]
  absorbance: 0.103
[2]
  absorbance: 1.24
[3]
  absorbance: 0.369
BSA control in PBS [4]
  absorbance: 0.12
[5]
  absorbance: 1.24
[6]
  absorbance: 0.357
BSA control in PBS [7]
  absorbance: 0.098
[8]
  absorbance: 1.25
[9]
  absorbance: 0.362
BSA control in PBS [10]
  absorbance: 0.091
[11]
  absorbance: 1.23
[12]
  absorbance: 0.389
[13]
  absorbance: 0.668
[14]
  absorbance: 1.03
[15]
  absorbance: 0.77
[16]
  absorbance: 1.07
[17]
  absorbance: 1.02
[18]
  absorbance: 0.67
[19]
  absorbance: 1.02
[20]
  absorbance: 0.776
[21]
  absorbance: 1.06
[22]
  absorbance: 1.04
[23]
  absorbance: 0.669
[24]
  absorbance: 1.03
[25]
  absorbance: 0.752
[26]
  absorbance: 1.06
[27]
  absorbance: 0.987
[28]
  absorbance: 0.664
[29]
  absorbance: 1.03
[30]
  absorbance: 0.781
[31]
  absorbance: 1.08
[32]
  absorbance: 1.04
[33]
  absorbance: 0.851
[34]
  absorbance: 0.836
[35]
  absorbance: 0.84
[36]
  absorbance: 0.878
[37]
  absorbance: 0.473
[38]
  absorbance: 0.489
[39]
  absorbance: 0.476
[40]
  absorbance: 0.453

## anti-DSE2 hybridoma clone 3H1 (antibody)
BSA control in GdnHCl [41]
  OD450: 0.164 OD450
BSA control in PBS [42]
  OD450: 0.156 OD450
[43]
  OD450: 2.15 OD450
[44]
  OD450: 0.41 OD450
BSA control in GdnHCl [45]
  OD450: 0.165 OD450
BSA control in PBS [46]
  OD450: 0.161 OD450
[47]
  OD450: 2.19 OD450
[48]
  OD450: 0.257 OD450
BSA control in GdnHCl [49]
  OD450: 0.162 OD450
BSA control in PBS [50]
  OD450: 0.15 OD450
[51]
  OD450: 2.1 OD450
[52]
  OD450: 0.563 OD450
BSA control in PBS [1]
  absorbance: 0.077
[2]
  absorbance: 2.29
[3]
  absorbance: 0.338
BSA control in PBS [4]
  absorbance: 0.078
[5]
  absorbance: 2.29
[6]
  absorbance: 0.34
BSA control in PBS [7]
  absorbance: 0.076
[8]
  absorbance: 2.29
[9]
  absorbance: 0.335
[53]
  OD450: 1.98 OD450
[54]
  OD450: 1.91 OD450
[55]
  S-N (U): 1.99 OD450
[56]
  S-N (F): 0.251 OD450
[13]
  absorbance: 0.558
[14]
  absorbance: 1.51
[15]
  absorbance: 0.731
[16]
  absorbance: 1.67
[17]
  absorbance: 1.43
[18]
  absorbance: 0.527
[19]
  absorbance: 1.59
[20]
  absorbance: 0.744
[21]
  absorbance: 1.72
[22]
  absorbance: 1.38
[23]
  absorbance: 0.59
[24]
  absorbance: 1.44
[25]
  absorbance: 0.717
[26]
  absorbance: 1.62
[27]
  absorbance: 1.49
[33]
  absorbance: 0.745
[34]
  absorbance: 0.763
[35]
  absorbance: 0.726
[37]
  absorbance: 0.43
[38]
  absorbance: 0.436
[39]
  absorbance: 0.425
[57]
  OD450: 0.081 OD450
[58]
  U/F: 7.93 fold
